Test system: MS2 coat protein
Assay: apparent KD of MS2 coat protein; designed switch direction (-1 OFF switch, 1 ON switch): -1; higher = weaker reporter binding
Procedure, shortened: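 Stalled E. coli RNA polymerase transcribed designed RNA switches on Illumina chips, which were then titrated with SNAP-549-labelled MS2 coat protein, doubling from 0.7 or 1.5 nM to 3 µM. Steps lasted from 0.8–1.5 h at the lowest concentration to 10–20 min at the highest. The apparent KD is each design's median over clusters of curve-fitted normalised fluorescence.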

[1] = Eterna round: R95, input ligand: FMN 200 uM
[2] = Eterna round: R95, input ligand: microRNA oligo, concentration not stated
[3] = Eterna round: R95, input ligand: none
[4] = input ligand: microRNA oligo, concentration not stated

Sequence	apparent KD of MS2 coat protein [1] [nM]	apparent KD of MS2 coat protein [2] [nM]	apparent KD of MS2 coat protein [3] [nM]	apparent KD of MS2 coat protein (input ligand: FMN 200 uM) [nM]	apparent KD of MS2 coat protein (input ligand: none) [nM]	apparent KD of MS2 coat protein [4] [nM]
AGAGAGUCAGGAUAUCGAAGGUAGAGAAGAGGAGAGUGGUACGAGAAGGGACAUGAGGAUCACCCAUGUAGGUG [JR_Exclusion4)Sub012] (puzzle: Exclusion 4)	193	245	462			
GAUCUACAUGAGGAUCACCCAUGUAAGGAUAUCUACAUUGAAGCCUCGGCUUCAAUGUAGAGAAGGUACAAUUA [E1/10-B2] (Eterna round: R97, puzzle: Exclusion 1)				31.5	32.4	
AGCUGACGAGGAUAUACAUGAGGAUCACCCAUGUUGGUCAAGCGACGAUAGUCGCAAUGUAGAAGGCGUCAGCU [E3/8-A1] (Eterna round: R97, puzzle: Exclusion 3)				621	547	
AAGCACGCGUAGGAUAUAAUCCAAACCUCGAGGUUAGAAGGACGCACAUGAGGAUCACCCAUGUUCCUAGCAUC [Eternabot (Original) Solution 19] (Eterna round: R97, puzzle: Exclusion 6)				20.7	17.1	
UGACAGGAGUAGGAUAUGCCCACCGUCCGACUGGCAGAAGGACUCACAUGAGGAUCACCCAUGUAGUUAUGUAC [Eternabot (L2) Solution 96] (Eterna round: R97, puzzle: Exclusion 6)				20.1	16	
AUAUUAACAUAGGAUAUCGAAUAAAUUAUUUAACGAGAAGGAUGAACAUGAGGAUCACCCAUGUGGUAUCAUGG [Mat - Exclusion 6 - JL Mod - D29] (puzzle: Exclusion 6)	153	236	411			
AAUUUUUAUGUAAGGAUAUGGGUUUGGAAACGGGCUUAGAAGGUACAUGAGGAUCACCCAUGUAUAAUGUGCGU [-19.9, -19.7 kcal, 30% A] (Eterna round: R97, puzzle: Brourd's mod of Exclusion 4)				19	18.3	
CAGUACUGAGGAUAUACAUGAGGAUCACCCAUGUGUGCCAGCUAGGAAACUAGCAAAAGUAGAAGGCAGUACUG [salish99_ex3_r3_082] (puzzle: Exclusion 3)	102	12	11.9			
GACUCACAUGAGGAUCACCCAUGUUAGGAUAUAACCUCAUCAACAACGAUUUGGGAGGUUAGAAGGGAUGAUGG [Eternabot (L1) Solution 80] (Eterna round: R97, puzzle: Exclusion 1)				110	89	
ACGUAACGAGCUUGGUCCAACAUGAGGAUCACCCAUGUGCUCGUCUUAUAACGUACUGUCACGUUAGUGAUAGUGCG [Sensor v3, turn-off variant 1 (MOD of Eli's v1-13 v.6)] (puzzle: Sensor v3, turn-off variant 1)	286	194	360			
GACCUAUAGGUAGGAUAUCAUUGCGAUUAGCUAUGAGAAGGACCACAUGAGGAUCACCCAUGUCCUCCAAUUAACCAUUUGGUC [Fiskers ExNg1 - 4] (Eterna round: R96, puzzle: Exclusion NG 1)				239	86.7	69.6
GGCAGUCGAGGAUAUACGAUCGUGCUUCGGCACGUAAGAUCACAUGAGGAUCACCCAUGUAGAAGGCGACUGCC [Mod 2 - Jieux - Exclusion 2] (Eterna round: R97, puzzle: Exclusion 2)				214	33.4	
UGCGAGUAAGGAUAUUCGCGACCGCCCACAAGGGCAGUCGAGAAGAAGGUACUUGAGGAUCACCCAAGUCCUAA [Quondius] (Eterna round: R97, puzzle: Exclusion 4)				89.8	20.8	
UAGAUGGCUCAGGAUAUUUGCCAACUAACUCGCGAAGAAGGGAGCACAUGAGGAUCACCCAUGUGAUCGAACGG [Rila] (puzzle: Exclusion 6)		16.3				
CGCAACACAUGAGGAUCAAACAUGAGGAUCACCCAUGUAUAACAAGCUUUUUGCUCGUCUUAUAAAUAUGUGUUGCG [Electric Eye 2 - Jieux - Sensor, turn-off variant 1] (Eterna round: R97, puzzle: Sensor, turn-off variant 1)				16.9	9.13	
AUUAUAUAGACAGGAUAUUGAUUAUUAUUUUAACAUGAGGAUCACCCAUGUAACCUUAUGUGUAGCAAGAAGGGUCAUUUAUUA [Title] (Eterna round: R96, puzzle: Exclusion NG 2)						81.8
GUCCCGGAAGGAUAUGCAGAGCACGAUCCCGUUAAAGGGCCACAUGAGGAUCACCCAUGUAGAAGGUCCAGGGC [EX2 B.21] (Eterna round: R97, puzzle: Exclusion 2)				32.8	13.1	

Sequence	apparent KD of MS2 coat protein [1] [nM]	apparent KD of MS2 coat protein [2] [nM]	apparent KD of MS2 coat protein [3] [nM]	apparent KD of MS2 coat protein (input ligand: FMN 200 uM) [nM]	apparent KD of MS2 coat protein (input ligand: none) [nM]	apparent KD of MS2 coat protein [4] [nM]
AGCUGUGGCCGAGGAUAUCUAACAGUCCCAACCGAAAUAUAAUCGGACAUGAGGAUCACCCAUGUAGAGAAGGCGGUCUCAGCA [Eli eng2 - 072] (Eterna round: R96, puzzle: Exclusion NG 2)				324	222	157
GAAAAGGUAGGAUAUACGAAAUAAAAGGGUAGAAAAAAAACACAUGAGGAUCACCCAUGUAGAAGGACCAAAAG [salish99_ex2_r3_084] (puzzle: Exclusion 2)	52.9	15.5	34.7			
UGGGUUCCAAGUGAGUCAGACAUGAGGAUCACCCAUGUAUAGCAAGCCUUAGCCGUUCGAGCAAAUGGUCUCGUCAG [Eternabot (Original) Solution 36] (Eterna round: R97, puzzle: Sensor, turn-off variant 1)				384	1040	
UUUUUAUUUGAAGGAUAUACUUAACAUGAGGAUCACCCAUGUGGUGUUGUGAGUGAGUGAGUUUAGUAGAAGGUCAAUUAUUUU [JMF's solution 18] (Eterna round: R96, puzzle: Exclusion NG 2)						359
GCGCCAUCGUGAGAUGGCGUAUUUACAUGAGGAUCACCCAUGUAGGAUAUCGAUUGCUUUGCAGUCGAGAAGGGCAUGAUAAGU [JL ENG3 3.78] (Eterna round: R96, puzzle: Exclusion NG 3)				72.5	54.5	37.3
AUGAGCAGACGGAGAUCCAACAUGAGGAUCACCCAUGUCUCAAAAGCUUUUUGCUCAUCUUAUUGUACCUUGGUGCU [Mat - Sensor v3 - turn-off var 1 - JL Mod - D16] (puzzle: Sensor v3, turn-off variant 1)	167	13.2	194			
UUUUAACAAGCGAGGUCCCACAUGAGGAUCACCCAUGUAGGUCAUGGAUUCCAUGGUCUUUUUGCUCGUCUUGUGUG [jl TITIN mod 9] (Eterna round: R97, puzzle: Sensor, turn-off variant 1)				32.2	31.6	
AUGCGACAUGAGGAUCACCCAUGUGAGGAUAUGCGAAUGCAUACUUCGGUGUGAUAGAGCAGAAGGCGCAGGUA [EX1 #16] (Eterna round: R97, puzzle: Exclusion 1)				560	831	
AAGAAGCAAGGAUAUACAACGGGCCACAGAGCCGAAGGGCAACAUGAGGAUCACCCAUGUAGAAGGUGCGUAAC [Lecebeqube] (puzzle: Exclusion 2)	149	30.3	28.2			
GGCAGGCUAGAGGAUAUGCAUUGGCUUGGCCAAGCAGAAGGCUAGACAUGAGGAUCACCCAUGUGUUCCUUGUG [jl-ex6-4.36 ViennaUCT mod] (Eterna round: R97, puzzle: Exclusion 6)				83.5	93.6	
CCAAGAAUAGGAUAUACAACAUGCCAGCUUCUUUACAUCGCACAUGAGGAUCACCCAUGUAGAAGGGUUCUCUG [Exclusion-2-#15] (Eterna round: R97, puzzle: Exclusion 2)				182	209	
AUAAUGUGAGGAUAUCGAGACUACUGCCUCGGCAGUAGUCUCGAGAAGGCACAUGAGGAUCACCCAUGUGAUCA [E4/2-A2] (Eterna round: R97, puzzle: Exclusion 4)				79	1190	
GCUGGUCGAGGAUAUACAUGAGGAUCACCCAUGUGGUCACGUGACGAUAGUCACGAAUGUAGAAGGCGACCAGC [E3/3-A1] (Eterna round: R97, puzzle: Exclusion 3)				66.9	161	
ACAUGACAGCUAGGAUAUAAAUGACAUGAGGAUCACCCAUGUUGUCCCAUGUUGACGAUCACCGAUUAGAAGGAGCCACCCAUG [Ex NG2 #1] (Eterna round: R96, puzzle: Exclusion NG 2)				106	89	110
UUUAUGCUAGGAUAUGCACCCUCGAACAUGAGGAUCACCCAUGUACAAUAAAAGCAUGGAGCAGAAGGAGCUCCCA [EX5 A.24] (Eterna round: R97, puzzle: Exclusion 5)				378	80.1	
ACCUCACUUGAGGAUCACCCAAGUCAGGAUAUACUCGUUUGCCGCACGACGCGGCAUUGUAGAAGGGACGGGCU [Soraedrale] (Eterna round: R97, puzzle: Exclusion 1)				34.1	18.1	
CUGUACUGAGGAUAUACAUGAGGAUCACCCAUGUGUUCCUGCUAGGAAACUAGCAAGGGUAGAAGGCAGUACAG [Mat - Exclusion 3 - Eli Mod - D46] (Eterna round: R97, puzzle: Exclusion 3)				100	15.7	
